B1: LINE1-full (parent)
chain: UACGUAGGUGGUUUUCCCCUGAUAGUGCUAAGGGGGCCUGGAAGUUUGGACUGGGCAGAGCUCAACACAGCGUGGCAAAGUGGCUGUGGCUAGACUGCCUCUCUGGAUUCCUCGUCACUCAGCAGGGCAUCUCUGAGAGAAAUGCC

The record followed here is the RNAGym collection of RNA variant scans (doi:10.7554/elife.90254).

In the series the parent is B1. Description: self-cleavage, relative activity (ratio to wild type); higher = more cleavage; in vitro, sequencing; the parent is a self-cleaving ribozyme.
In the case of U29C A43G, the self-cleavage was determined as 1.29. Regarding U29C A43U, the self-cleavage amounted to 1.18. With C28A U81C, the self-cleavage is 0.89. U29C U62A: the self-cleavage came out at 0.03. Regarding U26G U39C, the self-cleavage was found to be 1. Under U26G U39A stands 1.12. Under U26G G122A stands 1.81; under A30G U132C, 1.05. The figure for A30G G41U is 1.66.

For the variant U26G A121C, the self-cleavage was 1.31. As to U26G U81C, the self-cleavage was 0.58. For A30G U81C, the self-cleavage stood at 1.33. The figure for A30G U81A is 1.7; for U29C U100A it is 1.42. The figure for U29A U81C is 0.92; for A30G U130C it is 1.36. Under U26C U119A stands 1.25; under C28U A117G, 1.58; under U29A U62A, 0. For G27A A79U, the self-cleavage was found to be 1.36. Turning to G27A A79G, the self-cleavage stood at 1.07.

Turning to A30G A69C, the self-cleavage turned out to be 0.26. For A30G A69G, the self-cleavage was found to be 0.55. The figure for U29A U115C is 1.98. As for U26G U130C, the self-cleavage came to 0.86. As for A30C U81C, the self-cleavage stood at 0.92.

Consider U29C A57U, for which the self-cleavage was 0.33. With U29C A57G, the self-cleavage is 0.98. Consider U29C C71A, for which the self-cleavage is 0.32. On to U29A A43G, for which the self-cleavage is 1.77. Under A30U A79G stands 0.91; under U26C U130C, 1.7; under U26C U130A, 1.35. For the variant G27C A67C, the self-cleavage was 0.1. As to U29A A59G, the self-cleavage was 0.16. Under U29C G34A stands 0.73; under C28U A136G, 0. The figure for U29A C133U is 0.85; for C28U A138U it is 0.9; for U29C C101G it is 0.89. Regarding G27U G41U, the self-cleavage came to 1.26.

For the variant A30G A140C, the self-cleavage came to 0.93. For the variant A30G C116U, the self-cleavage turned out to be 1.27. Regarding G27C G54U, the self-cleavage amounted to 0.17. Consider C28U A142G, for which the self-cleavage was 0.79. The figure for A30G C56U is 0.84; for U26G A107G it is 0; for G27U U52C it is 0.36. A30G G53A: the self-cleavage was 0.94. As for U29A A64U, the self-cleavage worked out at 0.25.

Turning to A30G C71U, the self-cleavage was 0.85.

As for A30C A65G, the self-cleavage turned out to be 0.08. With U29C C128U, the self-cleavage is 1.3. Turning to U29A U46C, the self-cleavage was found to be 1.21. Turning to A30U A77U, the self-cleavage was 0.98. In the case of U29A U109C, the self-cleavage worked out at 1.25. For the variant C28U U46C, the self-cleavage amounted to 1.21. Under U29A A129G stands 1.11. Turning to A30G A65U, the self-cleavage came out at 0.39. As to A30G C118U, the self-cleavage came out at 1.93. With C28U U52C, the self-cleavage was found to be 1.58.

As for U29A A57G, the self-cleavage stood at 1.01.

For U29C A30G, the self-cleavage turned out to be 0.89. U29C A30U: the self-cleavage turned out to be 1.23. In the case of G27A U62C, the self-cleavage was determined as 0.08. On to A30G G49U, for which the self-cleavage was 0.89. The figure for A30G A77G is 2.12; for C28U C38U it is 1.06.

With U26G A59G, the self-cleavage is 0.41. For the variant A30G U73C, the self-cleavage turned out to be 2.09. Turning to A30G G35A, the self-cleavage was determined as 1.11. As to A30C A67C, the self-cleavage stood at 0.21. As to U29C C111U, the self-cleavage amounted to 1.13. For the variant U29A A136U, the self-cleavage was 1.38. U29A A136G: the self-cleavage stood at 1.38. Turning to C28A A42G, the self-cleavage turned out to be 0.82. With G27A A57U, the self-cleavage was 0.04. Under A30G A121U stands 0.84. Under A30G A121G stands 0.52; under C28U A78G, 1. U26C U132A: the self-cleavage turned out to be 1.73.

For the variant U29C A65U, the self-cleavage worked out at 0.42. For the variant C28A A141G, the self-cleavage worked out at 0.61. On to U29A A124G, for which the self-cleavage is 0.91.

Take C28G U115C: the self-cleavage came to 0.75. On to G27A U91C, for which the self-cleavage amounted to 0.35. For U29C C146U, the self-cleavage was 1.02. As for C28U G54A, the self-cleavage amounted to 0.65. For A30C C131G, the self-cleavage turned out to be 2.01. Turning to G27A A94U, the self-cleavage was 0.18. Consider G27A A94G, for which the self-cleavage stood at 0.23.

Turning to A30C G36A, the self-cleavage is 1.09. C28A U85C: the self-cleavage worked out at 0.17. For U29C A69G, the self-cleavage amounted to 0.53.

On to G27C U52A, for which the self-cleavage is 0.91. Consider G27C U112C, for which the self-cleavage stood at 1.53.

Take A30C A138G: the self-cleavage stood at 1.84. Under G27U U73C stands 1.51. Take U29C C61A: the self-cleavage was 0.03. With U29A A140G, the self-cleavage was 1.3.

As for C28A A124G, the self-cleavage was found to be 0.56. Under C28A U96C stands 0.17; under A30G G125U, 1.47; under U29C C56U, 0.23. As to C28U A92U, the self-cleavage turned out to be 0.43.

As for U29A U47C, the self-cleavage was 0. The figure for A30C G58U is 0.09. A30U A65U: the self-cleavage is 0.19. With A30G C99U, the self-cleavage was determined as 1.03. The figure for U26C U134A is 1.32; for U29C G122U it is 1.35; for U29C G122A it is 1.68. With U29C U45A, the self-cleavage amounted to 0. As for U29C A77G, the self-cleavage amounted to 1.92. With A30G A124U, the self-cleavage amounted to 1.44.

For A30C U130A, the self-cleavage was determined as 0.75.

On to C28A A129G, for which the self-cleavage is 1.5. Consider U29C G74A, for which the self-cleavage came to 1.11.

In the case of G27A U81C, the self-cleavage was determined as 0.8. With U26C U108C, the self-cleavage is 1.76.

For the variant U26C U108G, the self-cleavage turned out to be 2.12. For U26C U108A, the self-cleavage came to 1.5.

Regarding U29G A78G, the self-cleavage is 0.87.

Turning to G27A G36C, the self-cleavage stood at 1.24. Regarding A30G A42U, the self-cleavage turned out to be 1.06. Regarding G27A U96C, the self-cleavage was determined as 0.1. In the case of C28U A94G, the self-cleavage turned out to be 0.3. For C28G C98A, the self-cleavage was found to be 0.12. Regarding A30G U52C, the self-cleavage is 1.53. Regarding A30G U52A, the self-cleavage was 1.21. On to A30G A67G, for which the self-cleavage turned out to be 0.51.

For the variant A30G A67U, the self-cleavage was 0.1. For U29C A92U, the self-cleavage was 0.81.

For C28U C63A, the self-cleavage came to 0.02. For U26C U112A, the self-cleavage was found to be 1.63. The figure for A30U is 1.1. On to A30G, for which the self-cleavage came to 1.09. As for A30C, the self-cleavage stood at 1.27. As for U29A U73A, the self-cleavage came out at 1.55. U26G U62C: the self-cleavage is 0.19. With U26G U62A, the self-cleavage came to 0.03. On to U29C U87A, for which the self-cleavage was found to be 0.16. As to U29C U87C, the self-cleavage was 0.41. As to A30U A64U, the self-cleavage worked out at 0.51. As for U29C U85G, the self-cleavage amounted to 0.28.

Consider U29C C113U, for which the self-cleavage was 1.44. Under U29G C71G stands 0.23; under G27A A140G, 1.38. U29A A30G: the self-cleavage was 0.86. On to C28A A67G, for which the self-cleavage is 0.55. For U29C G125A, the self-cleavage was 0.94. In the case of C28U A77G, the self-cleavage worked out at 1.38. Regarding C28U A77C, the self-cleavage amounted to 1.07. On to G27A A78G, for which the self-cleavage came to 0.74. In the case of G27A A121G, the self-cleavage was found to be 1.46. On to A30C U52C, for which the self-cleavage came to 0.33. U29C U130A: the self-cleavage was 1.26. Regarding U29C U130C, the self-cleavage stood at 1.52. In the case of G27A G53A, the self-cleavage was determined as 0.94. Turning to G27A G53U, the self-cleavage turned out to be 1.14. The figure for A30G G114A is 0.92.

Take U26G A141G: the self-cleavage was 0.97. For the variant A30G U39C, the self-cleavage was 1.13. For A30G U39A, the self-cleavage amounted to 0.98. The figure for U29C G126A is 0.77; for U29C A94U it is 0.56.

Take A30G G89C: the self-cleavage worked out at 0.07.
